The experiment deals with rabbit skeletal muscle α-actin (rabbit) (UniProt P68135).

Experimental findings from article PMC3506534, “LL-37 Induces Polymerization and Bundling of Actin and Affects Actin Structure” (PLoS ONE, 2012) are described below.

Chain of DNase1 (P00639 23-282): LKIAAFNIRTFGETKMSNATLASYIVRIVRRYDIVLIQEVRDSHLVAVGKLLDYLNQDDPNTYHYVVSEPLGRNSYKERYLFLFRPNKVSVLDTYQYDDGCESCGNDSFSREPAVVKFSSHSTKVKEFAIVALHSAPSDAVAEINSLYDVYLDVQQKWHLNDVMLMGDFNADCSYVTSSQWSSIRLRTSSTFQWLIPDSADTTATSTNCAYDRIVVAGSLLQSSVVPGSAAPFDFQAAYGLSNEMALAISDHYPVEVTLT

Substance “DNase1 (from UniProt P00639 23-282) (enzyme)” registered a disappearance of Mg-F-actin bundles (bundled by 9 µM LL-37) and depolymerization of the filaments after 6 µM DNase1 (low and high speed sedimentation) of 100%.
